These results are taken from patent US20220073604A1 (ARGENX BVBA, published 2022).

Assay [1] has as its target T1, bacterially produced cynomolgus monkey IL-6 (cynomolgus monkey, UniProt P79341 28-212, limits assumed).
T1 construct: also called bact-cy IL-6; HIS-cyIL-6
In words: off-rate of Fab 111A7 variant on bact-cy IL-6 (binding kinetics, SPR presumed; n = 2).

In assay [2] the target is IL-6 (bact-hIL-6, euk-hIL-6 and bact-cy IL-6; 'average binding' of Table 21). As to the kind of experiment: average binding level in the off-rate screen (unit not given; n = 2).
Assay [3] has the same target. As to the kind of experiment: average binding level in the off-rate screen (unit not given; n = 5).
The target of assay [4] is T1, bacterially produced cynomolgus monkey …. In words: off-rate of Fab 111A7 variant on bact-cy IL-6 (binding kinetics, SPR presumed; n = 5).
The target of assay [5] is T2, human IL-6 (as added in the B9 and 7TD1 bioassays) (human, UniProt P05231 30-212). In words: cell-based or functional assay.
In assay [6] the target is T2, human IL-6 (as added in the B9 and 7TD1 …). In words: cell-based or functional assay. This is another data set of the same source.
Assay [7] has the same target. As to the kind of experiment: cell-based or functional assay. The source holds these as a separate data set.
The target in assay [8] is T3, bacterially produced human IL-6 (human, UniProt P05231 30-212).
T3 construct: also called bactIL-6; prokaryotic IL-6
In words: SPR; purified Fab over biotinylated IL-6 on streptavidin chip.
Method: (§1) From the washing phase the off-rate (kd) was determined, while from the injection phase the on-rate (ka) was calculated using the concentration and off-rate as parameters.

In assay [9] the target is T4, human IL-6 (human, UniProt P05231 30-212).
T4 construct: Used where the text says only IL-6 or human IL-6 (crystals: rh IL-6 from Immunotools; cell assays) and for values averaged over the bacterial and eukaryotic IL-6 channels; also called interleukin-6; rh IL-6
In words: SPR; periplasmic fraction; average of the IL-6 channels. On the set-up: unit not given here.

Assay [10] addresses T5, eukaryotically produced human IL-6 (human, UniProt P05231 30-212).
T5 construct: also called eukIL-6; Euk IL-6
As to the kind of experiment: SPR; purified Fab; IL-6 coated on CM5 chip.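 Also: dissociation rate taken from the wash phase, association rate fitted over the injection phase with analyte concentration and dissociation rate as inputs.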
Method: as §1

Assay [11] has as its target T3, bacterially produced human IL-6. In words: SPR; purified Fab; IL-6 coated on CM5 chip.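 Also: dissociation rate taken from the wash phase, association rate fitted over the injection phase with analyte concentration and dissociation rate as inputs.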
Method: as §1
For assay [12] the target is unchanged. As to the kind of experiment: SPR; purified Fab; ratio bact to euk IL-6.
Assay [13] has the same target. In words: SPR; periplasmic fraction; ratio bact to euk IL-6.
Method: as §1
In assay [14] the target is T5, eukaryotically produced human IL-6. In words: SPR; periplasmic fraction.
Method: as §1
For assay [15], the target named is T3, bacterially produced human IL-6. In words: SPR; periplasmic fraction.
Method: as §1
In assay [16] the target is T5, eukaryotically produced human IL-6. As to the kind of experiment: SPR; purified Fab.
In assay [17] the target is T3, bacterially produced human IL-6. As to the kind of experiment: SPR; purified Fab.
Assay [18] deals with T6, cynomolgus monkey IL-6 (cynomolgus monkey, UniProt P79341 28-212, limits assumed).
T6 construct: also called HIS-cyIL-6
As to the kind of experiment: SPR; purified Fab, 68 nM.

The target in assay [19] is T5, eukaryotically produced human IL-6. As to the kind of experiment: SPR; purified Fab, 68 nM.
Assay [20] has as its target T3, bacterially produced human IL-6. In words: SPR; purified Fab, 68 nM.
The target of assay [21] is T6, cynomolgus monkey IL-6. As to the kind of experiment: SPR; purified Fab.
Assay [22] has as its target T5, eukaryotically produced human IL-6. As to the kind of experiment: SPR; purified Fab. This is another data set of the same source.
For assay [23], the target named is T3, bacterially produced human IL-6. As to the kind of experiment: SPR; purified Fab. The source holds these as a separate data set.

Residue numbers refer to the chain shown, from its start.

B1: Fab 111A7 with the CDR3 methionine changed to T (Fab, V domains shown)
VH: EVQLLESGGGLVQPGGSLRLSCAASGFTFSSYAMSWVRQAPGKGPEWVSRISAGGGSTYYGDSVKGRFTISRDNSKNTLYLQMNSLRAEDTAVYYCANRAGWGTGDYWGQGTLVTVSS
VL: QTVVTQEPSFSVSPGGTVTLTCGLSSGSVTASNYPGWYQQTPGQAPRALIYSTNDRHSGVPDRFSGSISGNKAALTITGAQAEDEADYYCALDIGDITEFGGGTQLTVL
With B1, the off-rate (koff) in [1] amounted to 0.000144 s⁻¹. The molecule also yielded an average binding in assay [2] of 130.

B2: Fab 111A7 with the CDR3 methionine changed to P (Fab, V domains shown)
VH: B1 VH with T104P
VL: B1 VL
For the molecule B2, in assay [3], the average binding is 66. The same molecule returned a koff in [4] of 0.000899 s⁻¹.

B3: Fab 111A7 with the CDR3 methionine changed to V (Fab, V domains shown)
VH: B1 VH with T104V
VL: B1 VL
In assay [1], B3 had an off-rate (koff) of 0.000242 s⁻¹. Besides, the average binding in assay [2] turned out to be 163.

B4: 61H7 (antibody, V domains shown)
VH: EVQLVESGGGLVQPGGSLRLSCAASGFTFSSYRMYWVRQPPGKGLEWVSAISAGGGSTYYGDSVKGRFTISRDNAKNTVYLQMNSLKPEDTAVYYCANRAGWGMGDYWGQGTQVTVSS
VL: QTVVTQEPSLSVSPGGTVTLTCGLSSGSVTASNYPGWFQQTPGQAPRALIYSTNDRHSGVPSRFSGSISGNKAALTITGAQPEDEADYYCALDIGDITEFGGGTHLTVLG
Turning to B4, in assay [5], the “IC 50, B9 cell proliferation (batch 12.8)” value was 0.00183 nM and the “IC 50, B9 cell proliferation (batch A8.11)” value came to 0.00157 nM. In assay [6], the “IC50 (read off the curve), B9 cell proliferation” value was roughly 0.001 nM. In addition, in [7], the “IC50, 7TD1 cells (batch A8.11)” value was 0.00348 nM and the “Potency relative to 68F2, 7TD1 cells (batch A8.11)” value worked out at 0.19.

B5: Fab 24D10 (Fab, V domains shown)
VH: QLQVVESGGGLVQPGGSLRLSCAASGFTFSSYAMSWVRQAPGKGPEWVSRISSGGGSTSYADSVKGRFTISRDNAKNTLYLQMNSLKPEDTAVYYCANRAGWGMGDYWGQGTQVTVSS
VL: B4 VL
notes: Fab; also called pur24d10; 28f12(24D10)
In the case of B5, the Ka in assay [8] amounted to 3.7e+09 M⁻¹. Besides, the Kd in assay [8] was determined as 0.27 nM; in assay [10], 0.85 nM; in assay [11], 1.2 nM. Moreover, the koff in assay [8] is 1.69e-05 s⁻¹; in [10], 0.00017 s⁻¹; in assay [11] it was 0.00019 s⁻¹; in assay [14], 0.000144 s⁻¹; in assay [15], 0.000183 s⁻¹; in assay [16], 0.000125 s⁻¹. In assay [17], this molecule yielded an off-rate constant (koff) of 0.000143 s⁻¹. The same molecule displayed a kon in [8] of 62700 M⁻¹ s⁻¹. This molecule displayed an average binding in assay [9] of 167. Further, the ratio bact/euk in assay [12] was found to be 1.14; in assay [13], 1.09.

B6: Fab 61H7 (Fab, V domains shown)
VH: B4 VH
VL: B4 VL
notes: Fab; also called pur61H7; 61H7 Fab
Turning to B6, in assay [12], the ratio bact/euk worked out at 1.13. Also, the figures for the off-rate constant (koff) in assay [16] and in assay [17] were 3.68e-05 s⁻¹ and 4.22e-05 s⁻¹, respectively.

B7: Fab 17F10 (Fab, V domains shown)
VH: EVQLQESGPGLVKPSQTLSLTCTVSGGSIATSYYAWSWIRQPPGKGLEWMGVIDYDGDTYYKPSLKSRTSISRDTSKNQFSLQLSSVTPEDTAVYYCARAGLGDSYYLGTYYAMDYWGKGTLVTVSS
VL: QAGLTQPPSVSGSPGKTVTISCAGTTSDVGTGNFVSWYQQLPGMAPKLLIYDVNKRASGIADRFSGSKSGNTASLTISGLQSEDEADYYCASYRSLNNVVFGGGTHLTVLG
notes: Fab; also called 17F10 pur Fab 68 nM
In the case of B7, the Kd in assay [10] was found to be 6 nM; in assay [11], 43 nM; in [18] it was 14 nM; in assay [19] it was 14 nM; in assay [20] it was 19 nM; in assay [21], 0.62 nM. Also, the equilibrium dissociation constant (Kd) worked out at 6 nM in assay [22] and 43 nM in assay [23]. Moreover, the koff in assay [10] amounted to 0.00072 s⁻¹; in assay [11], 0.0012 s⁻¹; in assay [18], 0.00078 s⁻¹; in [19], 0.00077 s⁻¹; in [20], 0.00088 s⁻¹; in assay [21], 0.0007 s⁻¹. In addition, the koff was determined as 0.00072 s⁻¹ in [22] and 0.0012 s⁻¹ in [23].
